Experimental data as given in publication PMC7791966 (Experimental and Therapeutic Medicine, 2020).

Target: Recombinant human HER2 (Homo sapiens, UniProt P04626)
Experiment: SPR

Row | Kd [nM] | Binder
1 | 2.5 | e23sFv, mouse anti-HER2 single-chain variable fragment (scFv, V domains shown) VH: VQLQESGPEVVKPGGSMKISCKTSGYSFTGHTMNWVKQSHGKNLEWIGLINPYNGDTNYNQKFKGKATFTVDKSSSTAYMELLSLTSEDSAVYYCARRVTDWYFDVWGAGTTVTVS VL: DLQLTQSPAILSASPGEKVTMTCRATPSVSYMHWYQQKPGSSPKPWIYTTSNLASGVPARFSGGGSGTSYSLTVSRVEAEDAATYYCQQWSRSPPTFGGGSKLEIK
2 | ~500 | EMEY, e23sFv derivative with 11 point mutations in the framework regions (scFv, V domains shown) VH: VQLQESGPELVKPGGSVKISCKASGYSFTGHTMNWVKQSHGKGLEWIGLINPYNGDTNYNQKFKGKATLTVDKSSSTAYMELSSLTSEDSAVYYCARRVTDWYFDVWGAGTTVTVS VL: DLQLTQSPAILSASPGEKVTMTCRATPSVSYMHWYQQKPGTSPKLWIYTTSNLASGVPARFSGSGSGTSYSLTISRVEAEDAATYYCQQWSRSPPTFGGGTKLEIK
